The target in one experiment is T1, P185 BCR-ABL (Homo sapiens, UniProt P00519+P11274).
T1 construct: endogenous in cells; host or cells: SUP-B15 (Ph1-positive ALL cell line)
The experiment is described as follows: Bcr-Abl autokinase (immune complex kinase) assay. To be noted: for Inhibition of Bcr-Abl tyrosine kinase activity (autophosphorylation): 50 μg of peptide added to P185 BCR-ABL immune complexes from SUP B15 cells. It is filed as biochemical. As to the method: FIG. 21. Phosphoserine Bcr peptide pS354 S17K (SEQ ID NO:22) inhibits the Bcr-Abl tyrosine kinase activity. The SUP B15 cell line derived from a patient with Bcr-Abl-positive acute lymphocytic leukemia (ALL) were grown in culture; cells were lysed and the Bcr-Abl oncoprotein immunoprecipitated with a monoclonal antibody p6D (anti-Abl 51-64). The immune complexes were mixed with either no peptide or 50 μg of peptide prior to addition of the kinase activating buffer containing [γ-^32P]ATP. After the assay was completed, the proteins were fractionated by SDS gel electrophoresis. Radioactive proteins were detected by phosphoimage analysis. Lane 1, no peptide; lane 2, 50 μg of pS354 S17K; lane 3, 50 μg of unphosphorylated S17K.
FIG. 23A, FIG. 23B and FIG. 23C. A Bcr fragment expressed in COS-1 cells inhibits the Bcr-Abl tyrosine kinase in vitro. In these studies, the Bcr fragment was expressed in COS-1 cells, then isolated by immunoprecipitation with anti-Bcr 181-194 antibody. This immune complex was isolated by binding to protein A Sepharose beads; these immune complexes were added to protein A Sepharose beads containing P185 BCR-ABL harvested from SUP B15 leukemic cells with anti-Abl 51-64. The autokinase reaction was performed to measure the tyrosine kinase activity of Bcr-Abl.
Immunokinase Assay: The immunokinase assays were performed as described by Campbell et al. (1990) with modifications. The cells are lysed by homogenizing the cell pellet in two different lysis buffers at 0° C. in a tight fitting Wheaton homogenizer (either 0.1% Triton-X100, 100 mM NaCl, 5 mM EDTA, 10 mM sodium phosphate, pH 7.2 or 1% Triton-X100, 100 mM NaCl, 0.5% sodium deoxycholate, 0.1% SDS, 5 mM EDTA, 10 mM sodium phosphate pH 7.2). Both buffers were supplemented with 30 mM sodium pyrophosphate, 100 KIU aprotinin, 1 mM benzamidine, 1 mM phenylmethylsulfonyl fluoride and 0.2 mM sodium vanadate.
Immunoprecipitation reactions were carried out utilizing 20-40 μl of the respective anti-peptide rabbit sera or 5 μl of monoclonal antibody at 0° C. for 1 hour. Blocked immunoprecipitations refer to those immunoprecipitation reactions performed with antisera that have been preincubated with excess cognate peptide to specifically block the anti-peptide antibodies.
The resulting antigen-antibody immunoprecipitates were collected with 30 μl of 50% protein A-Sepharose (Pharmacia, Uppsala, Sweden), pelleted and washed with RIPA buffer (0.1% Triton X-100, 0.05% SDS, 0.5% sodium deoxycholate, 100 mM NaCl in 10 mM phosphate buffer, pH 7.2), wash buffer (0.1% Triton X-100, 100 mM NaCl, in 10 mM phosphate buffer, pH 7.2) and finally with 50 mM Tris buffer, pH 7.2. […]

The target of another experiment is T2, P210 BCR-ABL (Homo sapiens, UniProt P00519+P11274).
T2 construct: expressed in transfected cells; host or cells: COS-1
The experiment is described as follows: In vivo tyrosine phosphorylation of truncated Bcr proteins in COS-1 cells, anti-pTyr Western blot. It is filed as cell-based. The conditions noted are these: COS-1 cells coexpressing p210 Bcr-Abl. An excerpt:
FIG. 6A and FIG. 6B. In vivo tyrosine phosphorylation of truncated Bcr first exon sequences by Bcr-Abl. COS-1 vectors expressing Bcr150, Bcr221, and Bcr413 proteins, respectively, were expressed in COS-1 cells in the presence and absence of […].
The next tyrosine is at residue 177, and it is expected to be phosphorylated by Bcr-Abl (Puil et al., 1994). Bcr221 is tyrosine phosphorylated, but as with Bcr413, only in the presence of Bcr-Abl.
Transient transfections of COS1 cells were performed by the diethylaminoethyl (DEAE)-Dextran procedure. Transfection was initiated when COS1 cells were about 60%-80% confluent. After washing once with phosphate-buffered saline (PBS) and once with Tris-buffered Saline-0.02% Dextrose (TBS-D), cells were incubated with TBS-D containing 0.2 mg/ml DEAE-Dextran and 2 μg/ml of each added plasmid. The supernatant was then removed after 5-10 minutes when the cells started to round up and shrink.
After washing once with TBS-D and once with PBS, the cells were incubated in DMEM supplemented with 10% fetal calf serum and 100 μg/ml of chloroquine at 37° C. The chloroquine containing media was removed after 3-5 hours and the cells were washed three times with DMEM without fetal calf serum. The cells were then incubated in DMEM supplemented with 10% fetal calf serum at 37° C. for 2-3 days before harvesting.
COS-1 vectors expressing Bcr159, Bcr221, and Bcr413 proteins, respectively, were expressed in COS-1 cells in the presence and absence of p210 Bcr-Abl.
In general terms: A western blot detects proteins with antibodies after separation by electrophoresis.

Another experiment relates to casein. As to the kind of experiment: Immune complex kinase assay of mutant P160 BCR, transphosphorylation of casein. Type of experiment: biochemical. To be noted: mutant P160 BCR expressed in COS-1 cells. The text has this:
Mutant forms of P160^BCR were expressed in COS-1 cells and tested for serine/threonine kinase activities in immune complex kinase assays.
Using the intensities of the P160^BCR bands as an indication of the amount of active P160^BCR in the immune complex and the intensities of the casein bands as a measure of transphosphorylation activity, the transphosphorylation activity of the Y360F Bcr mutant was reduced about sevenfold, compared with that of the wild type. Similarly, the Y360F Bcr mutant was also defective in transphosphorylating another exogenous substrate, histone H1.
The amounts of Bcr within these immune complexes were quantitated in two ways. In a first method, the amounts of Bcr mutants would be underestimated by about 10%, compared with that of the wild type. On the basis of these measurements, the specific activity of transkinase activity (casein intensity/P160^BCR intensity) of the Y360F Bcr mutant (0.03) was reduced more than 20-fold in this study, compared with that of the wild type.
The second method of estimating the amounts of P160^BCR in immune complexes involved the Western blotting of these immune complexes with an anti-Bcr antibody. The specific activity of Y360F was reduced by about sixfold. […] By using autophosphorylation of the Bcr protein as a measure of its relative amount, the reduction of Bcr's transkinase by the Y360F mutation was about sevenfold, confirming the results obtained by the Western blot method.

Non-standard residues stand in square brackets, D forms with d. No end group written: not given here. pS = N[C@@H](COP(=O)(O)O)C(=O)O

The results in this text go back to patent publication US6537804B1, “BCR-ABL directed compositions and uses for inhibiting Philadelphia chromesome stimulated cell growth” (Board of Regents, The University of Texas Systems, priority 1995, dated 2003).

T1 sequence (P11274+P00519 fused): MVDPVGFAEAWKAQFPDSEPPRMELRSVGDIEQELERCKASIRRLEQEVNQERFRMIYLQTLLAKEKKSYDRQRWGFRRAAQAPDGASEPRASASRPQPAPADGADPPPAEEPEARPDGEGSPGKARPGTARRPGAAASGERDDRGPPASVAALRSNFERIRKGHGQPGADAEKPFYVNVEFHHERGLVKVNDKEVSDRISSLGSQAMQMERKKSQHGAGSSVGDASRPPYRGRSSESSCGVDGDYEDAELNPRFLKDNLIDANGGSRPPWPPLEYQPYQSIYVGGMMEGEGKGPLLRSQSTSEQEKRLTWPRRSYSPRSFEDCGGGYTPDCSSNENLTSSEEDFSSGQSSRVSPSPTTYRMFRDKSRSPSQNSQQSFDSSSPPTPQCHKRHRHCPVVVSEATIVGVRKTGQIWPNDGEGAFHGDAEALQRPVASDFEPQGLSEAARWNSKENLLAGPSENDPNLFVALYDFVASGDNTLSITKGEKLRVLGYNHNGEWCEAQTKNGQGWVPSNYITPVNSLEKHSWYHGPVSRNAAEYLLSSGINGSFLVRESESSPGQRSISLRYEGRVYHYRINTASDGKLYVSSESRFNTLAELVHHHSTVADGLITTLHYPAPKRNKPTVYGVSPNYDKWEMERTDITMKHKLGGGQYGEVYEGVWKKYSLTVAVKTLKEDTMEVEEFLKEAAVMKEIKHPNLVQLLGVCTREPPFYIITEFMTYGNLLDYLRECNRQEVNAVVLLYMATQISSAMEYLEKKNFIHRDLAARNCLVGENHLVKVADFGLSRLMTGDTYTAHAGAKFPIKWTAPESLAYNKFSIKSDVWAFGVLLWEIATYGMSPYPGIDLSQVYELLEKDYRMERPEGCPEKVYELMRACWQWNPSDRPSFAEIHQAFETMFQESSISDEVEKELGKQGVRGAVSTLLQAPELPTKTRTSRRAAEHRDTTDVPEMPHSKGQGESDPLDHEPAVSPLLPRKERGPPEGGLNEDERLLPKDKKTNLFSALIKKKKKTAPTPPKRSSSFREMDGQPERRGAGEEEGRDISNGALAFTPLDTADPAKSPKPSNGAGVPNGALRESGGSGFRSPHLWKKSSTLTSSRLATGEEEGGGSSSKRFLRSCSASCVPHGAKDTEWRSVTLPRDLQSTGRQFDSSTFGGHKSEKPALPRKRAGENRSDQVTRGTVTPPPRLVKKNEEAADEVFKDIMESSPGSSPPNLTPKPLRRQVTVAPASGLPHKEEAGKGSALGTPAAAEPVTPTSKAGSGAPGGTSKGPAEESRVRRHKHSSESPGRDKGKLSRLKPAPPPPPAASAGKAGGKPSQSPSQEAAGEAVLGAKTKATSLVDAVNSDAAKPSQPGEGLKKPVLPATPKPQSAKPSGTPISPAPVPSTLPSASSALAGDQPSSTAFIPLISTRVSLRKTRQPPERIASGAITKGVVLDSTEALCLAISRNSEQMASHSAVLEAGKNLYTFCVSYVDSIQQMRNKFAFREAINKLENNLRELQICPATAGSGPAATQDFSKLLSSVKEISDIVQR
T2 sequence (P11274+P00519 fused): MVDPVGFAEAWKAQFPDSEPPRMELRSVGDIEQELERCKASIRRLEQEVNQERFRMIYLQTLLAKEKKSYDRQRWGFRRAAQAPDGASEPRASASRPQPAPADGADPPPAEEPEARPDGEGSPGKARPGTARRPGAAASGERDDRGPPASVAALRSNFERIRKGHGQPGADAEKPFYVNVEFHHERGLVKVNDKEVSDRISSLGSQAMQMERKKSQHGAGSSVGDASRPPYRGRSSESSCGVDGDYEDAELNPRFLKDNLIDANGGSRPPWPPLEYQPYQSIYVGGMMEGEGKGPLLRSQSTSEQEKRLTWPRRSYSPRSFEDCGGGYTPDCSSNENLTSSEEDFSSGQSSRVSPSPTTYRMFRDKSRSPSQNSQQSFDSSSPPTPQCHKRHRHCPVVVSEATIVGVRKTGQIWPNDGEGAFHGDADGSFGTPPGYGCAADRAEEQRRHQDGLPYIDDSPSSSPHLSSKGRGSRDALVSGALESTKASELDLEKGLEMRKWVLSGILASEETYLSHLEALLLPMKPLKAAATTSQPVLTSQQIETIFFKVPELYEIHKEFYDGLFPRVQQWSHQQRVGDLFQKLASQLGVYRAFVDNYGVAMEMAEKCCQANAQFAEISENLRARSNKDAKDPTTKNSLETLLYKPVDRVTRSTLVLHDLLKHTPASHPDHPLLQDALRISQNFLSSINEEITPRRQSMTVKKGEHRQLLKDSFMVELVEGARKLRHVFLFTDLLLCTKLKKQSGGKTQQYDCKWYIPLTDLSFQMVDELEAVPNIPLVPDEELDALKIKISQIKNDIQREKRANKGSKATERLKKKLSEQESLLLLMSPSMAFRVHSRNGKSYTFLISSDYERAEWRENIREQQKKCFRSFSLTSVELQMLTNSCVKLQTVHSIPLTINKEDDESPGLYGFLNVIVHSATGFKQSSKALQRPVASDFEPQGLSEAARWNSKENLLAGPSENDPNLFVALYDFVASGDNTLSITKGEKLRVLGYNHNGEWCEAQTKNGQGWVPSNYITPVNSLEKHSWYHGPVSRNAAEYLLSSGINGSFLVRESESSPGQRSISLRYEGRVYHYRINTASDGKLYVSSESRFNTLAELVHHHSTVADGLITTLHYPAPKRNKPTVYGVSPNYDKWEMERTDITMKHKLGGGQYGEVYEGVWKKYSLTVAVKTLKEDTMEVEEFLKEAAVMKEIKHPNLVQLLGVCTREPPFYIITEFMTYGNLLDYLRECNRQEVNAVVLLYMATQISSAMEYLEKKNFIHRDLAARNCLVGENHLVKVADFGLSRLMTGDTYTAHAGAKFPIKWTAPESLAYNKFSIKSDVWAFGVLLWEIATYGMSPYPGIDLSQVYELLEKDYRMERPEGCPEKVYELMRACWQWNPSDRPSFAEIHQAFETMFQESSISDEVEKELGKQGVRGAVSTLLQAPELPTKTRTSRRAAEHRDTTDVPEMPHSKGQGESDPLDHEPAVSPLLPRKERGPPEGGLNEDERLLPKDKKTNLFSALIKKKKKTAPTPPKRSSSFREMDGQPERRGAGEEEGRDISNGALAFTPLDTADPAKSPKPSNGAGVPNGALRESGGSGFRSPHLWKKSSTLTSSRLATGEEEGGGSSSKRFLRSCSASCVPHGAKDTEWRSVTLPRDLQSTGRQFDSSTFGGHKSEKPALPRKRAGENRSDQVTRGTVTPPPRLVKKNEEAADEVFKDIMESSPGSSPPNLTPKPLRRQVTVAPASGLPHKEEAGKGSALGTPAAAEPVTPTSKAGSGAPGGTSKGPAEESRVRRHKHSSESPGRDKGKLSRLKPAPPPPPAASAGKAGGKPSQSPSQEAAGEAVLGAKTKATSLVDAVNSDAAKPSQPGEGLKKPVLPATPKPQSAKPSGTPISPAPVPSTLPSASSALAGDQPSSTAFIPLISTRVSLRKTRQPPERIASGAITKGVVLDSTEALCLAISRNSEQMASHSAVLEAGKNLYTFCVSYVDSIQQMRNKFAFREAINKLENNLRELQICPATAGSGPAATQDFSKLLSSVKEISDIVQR

For the molecule “350-SSRVpS*PSPTTYRMFRDK-366 (SSRV[pS]PSPTTYRMFRDK) [pS354 S17K]”, the “Inhibition of Bcr-Abl tyrosine kinase activity (autophosphorylation)” value in the experiment with P185 BCR-ABL is “strongly inhibited”.
As for “unphosphorylated S17K: unphosphorylated form of Bcr peptide S17K, Bcr residues 350 to 366 (SSRVSPSPTTYRMFRDK)”, the “Inhibition of Bcr-Abl tyrosine kinase activity (autophosphorylation)” value in the experiment with P185 BCR-ABL is reported as “little affect”.

B1: Bcr221: amino acids 1-221 of Bcr, N-terminal fragment (protein)
chain: MVDPVGFAEAWKAQFPDSEPPRMELRSVGDIEQELERCKASIRRLEQEVNQERFRMIYLQTLLAKEKKSYDRQRWGFRRAAQAPDGASEPRASASRPQPAPADGADPPPAEEPEARPDGEGSPGKARPGTARRPGAAASGERDDRGPPASVAALRSNFERIRKGHGQPGADAEKPFYVNVEFHHERGLVKVNDKEVSDRISSLGSQAMQMERKKSQHGAGS
As to B1, the “Tyrosine phosphorylation by Bcr-Abl in cells” value with P210 BCR-ABL is “induces tyrosine phosphorylation”.

B2: Bcr Y283F: P160 BCR with tyrosine 283 to phenylalanine mutation (protein, UniProt P11274 1-1271, looked up, variant Y283F)
Breakpoint cluster region …: MVDPVGFAEAWKAQFPDSEPPRMELRSVGDIEQELERCKASIRRLEQEVNQERFRMIYLQTLLAKEKKSYDRQRWGFRRAAQAPDGASEPRASASRPQPAPADGADPPPAEEPEARPDGEGSPGKARPGTARRPGAAASGERDDRGPPASVAALRSNFERIRKGHGQPGADAEKPFYVNVEFHHERGLVKVNDKEVSDRISSLGSQAMQMERKKSQHGAGSSVGDASRPPYRGRSSESSCGVDGDYEDAELNPRFLKDNLIDANGGSRPPWPPLEYQPYQSIFVGGMMEGEGKGPLLRSQSTSEQEKRLTWPRRSYSPRSFEDCGGGYTPDCSSNENLTSSEEDFSSGQSSRVSPSPTTYRMFRDKSRSPSQNSQQSFDSSSPPTPQCHKRHRHCPVVVSEATIVGVRKTGQIWPNDGEGAFHGDADGSFGTPPGYGCAADRAEEQRRHQDGLPYIDDSPSSSPHLSSKGRGSRDALVSGALESTKASELDLEKGLEMRKWVLSGILASEETYLSHLEALLLPMKPLKAAATTSQPVLTSQQIETIFFKVPELYEIHKEFYDGLFPRVQQWSHQQRVGDLFQKLASQLGVYRAFVDNYGVAMEMAEKCCQANAQFAEISENLRARSNKDAKDPTTKNSLETLLYKPVDRVTRSTLVLHDLLKHTPASHPDHPLLQDALRISQNFLSSINEEITPRRQSMTVKKGEHRQLLKDSFMVELVEGARKLRHVFLFTDLLLCTKLKKQSGGKTQQYDCKWYIPLTDLSFQMVDELEAVPNIPLVPDEELDALKIKISQIKNDIQREKRANKGSKATERLKKKLSEQESLLLLMSPSMAFRVHSRNGKSYTFLISSDYERAEWRENIREQQKKCFRSFSLTSVELQMLTNSCVKLQTVHSIPLTINKEDDESPGLYGFLNVIVHSATGFKQSSNLYCTLEVDSFGYFVNKAKTRVYRDTAEPNWNEEFEIELEGSQTLRILCYEKCYNKTKIPKEDGESTDRLMGKGQVQLDPQALQDRDWQRTVIAMNGIEVKLSVKFNSREFSLKRMPSRKQTGVFGVKIAVVTKRERSKVPYIVRQCVEEIERRGMEEVGIYRVSGVATDIQALKAAFDVNNKDVSVMMSEMDVNAIAGTLKLYFRELPEPLFTDEFYPNFAEGIALSDPVAKESCMLNLLLSLPEANLLTFLFLLDHLKRVAEKEAVNKMSLHNLATVFGPTLLRPSEKESKLPANPSQPITMTDSWSLEVMSQVQVLLYFLQLEAIPAPDSKRQSILFSTEV
With B2, in the experiment on casein, the “Ability to transphosphorylate casein compared with wild-type Bcr” value is recorded as “not significantly altered”.

B3: Bcr fragment (64-413): Bcr sequences from amino acid 64 to 413 with both A and B serine-rich boxes, expressed in COS-1 cells (protein)
chain: AKEKKSYDRQRWGFRRAAQAPDGASEPRASASRPQPAPADGADPPPAEEPEARPDGEGSPGKARPGTARRPGAAASGERDDRGPPASVAALRSNFERIRKGHGQPGADAEKPFYVNVEFHHERGLVKVNDKEVSDRISSLGSQAMQMERKKSQHGAGSSVGDASRPPYRGRSSESSCGVDGDYEDAELNPRFLKDNLIDANGGSRPPWPPLEYQPYQSIYVGGMMEGEGKGPLLRSQSTSEQEKRLTWPRRSYSPRSFEDCGGGYTPDCSSNENLTSSEEDFSSGQSSRVSPSPTTYRMFRDKSRSPSQNSQQSFDSSSPPTPQCHKRHRHCPVVVSEATIVGVRKTGQI
B3: in the experiment with P185 BCR-ABL (immune complexes on protein A Sepharose beads added to P185 BCR-ABL immunoprecipitates from SUP B15), the “Inhibition of Bcr-Abl tyrosine kinase activity (P185 autokinase)” value is “potent inhibitor”. Besides, the “Inhibitory activity towards Bcr-Abl kinase after boiling” value with P185 BCR-ABL (immunoprecipitate boiled for a few minutes prior to addition to the kinase assay) is given as “strongly decreased”.

B4: Bcr413: amino acids 1-413 of Bcr, N-terminal fragment (protein)
chain: MVDPVGFAEAWKAQFPDSEPPRMELRSVGDIEQELERCKASIRRLEQEVNQERFRMIYLQTLLAKEKKSYDRQRWGFRRAAQAPDGASEPRASASRPQPAPADGADPPPAEEPEARPDGEGSPGKARPGTARRPGAAASGERDDRGPPASVAALRSNFERIRKGHGQPGADAEKPFYVNVEFHHERGLVKVNDKEVSDRISSLGSQAMQMERKKSQHGAGSSVGDASRPPYRGRSSESSCGVDGDYEDAELNPRFLKDNLIDANGGSRPPWPPLEYQPYQSIYVGGMMEGEGKGPLLRSQSTSEQEKRLTWPRRSYSPRSFEDCGGGYTPDCSSNENLTSSEEDFSSGQSSRVSPSPTTYRMFRDKSRSPSQNSQQSFDSSSPPTPQCHKRHRHCPVVVSEATIVGVRKTGQI
B4: in the experiment with P210 BCR-ABL, the “Tyrosine phosphorylation by Bcr-Abl in cells” value is reported as “induces tyrosine phosphorylation”.
